# From patent US20230093708A1, “PROTEIN NANOPARTICLE DESIGN AND APPLICATION” (Duke University, priority 2020, published 2023)
# Non-standard residues stand in square brackets, D forms with d. Phe(4-N3) = [N-]=[N+]=Nc1ccc(C[C@H](N)C(=O)O)cc1
# B1: [S]-40-[QHN]-40: block co-polypeptide of two UCST blocks, (GRGDSPYS)40-(GRGDQPHN)40 (protein)
# chain: GRGDSPYSGRGDSPYSGRGDSPYSGRGDSPYSGRGDSPYSGRGDSPYSGRGDSPYSGRGDSPYSGRGDSPYSGRGDSPYSGRGDSPYSGRGDSPYSGRGDSPYSGRGDSPYSGRGDSPYSGRGDSPYSGRGDSPYSGRGDSPYSGRGDSPYSGRGDSPYSGRGDSPYSGRGDSPYSGRGDSPYSGRGDSPYSGRGDSPYSGRGDSPYSGRGDSPYSGRGDSPYSGRGDSPYSGRGDSPYSGRGDSPYSGRGDSPYSGRGDSPYSGRGDSPYSGRGDSPYSGRGDSPYSGRGDSPYSGRGDSPYSGRGDSPYSGRGDSPYSGRGDQPHNGRGDQPHNGRGDQPHNGRGDQPHNGRGDQPHNGRGDQPHNGRGDQPHNGRGDQPHNGRGDQPHNGRGDQPHNGRGDQPHNGRGDQPHNGRGDQPHNGRGDQPHNGRGDQPHNGRGDQPHNGRGDQPHNGRGDQPHNGRGDQPHNGRGDQPHNGRGDQPHNGRGDQPHNGRGDQPHNGRGDQPHNGRGDQPHNGRGDQPHNGRGDQPHNGRGDQPHNGRGDQPHNGRGDQPHNGRGDQPHNGRGDQPHNGRGDQPHNGRGDQPHNGRGDQPHNGRGDQPHNGRGDQPHNGRGDQPHNGRGDQPHNGRGDQPHN
# B2: Tn3: UAA5-40-K8D4-ligand construct with DR5-targeting Tn3 ligand (SEQ ID NO: 62) (protein)
# chain: AIEVKDVTDTTALITWAKPWVDPPPLWGIELTYGIKDVPGDRTTIDLQQKHTAYSIGNLKPDTEYEVSLISFDPYGMRSKPAKETFTT
# B3: [S]-80-[QHN]-40: block co-polypeptide of two UCST blocks, (GRGDSPYS)80-(GRGDQPHN)40 (protein)
# chain: GRGDSPYSGRGDSPYSGRGDSPYSGRGDSPYSGRGDSPYSGRGDSPYSGRGDSPYSGRGDSPYSGRGDSPYSGRGDSPYSGRGDSPYSGRGDSPYSGRGDSPYSGRGDSPYSGRGDSPYSGRGDSPYSGRGDSPYSGRGDSPYSGRGDSPYSGRGDSPYSGRGDSPYSGRGDSPYSGRGDSPYSGRGDSPYSGRGDSPYSGRGDSPYSGRGDSPYSGRGDSPYSGRGDSPYSGRGDSPYSGRGDSPYSGRGDSPYSGRGDSPYSGRGDSPYSGRGDSPYSGRGDSPYSGRGDSPYSGRGDSPYSGRGDSPYSGRGDSPYSGRGDSPYSGRGDSPYSGRGDSPYSGRGDSPYSGRGDSPYSGRGDSPYSGRGDSPYSGRGDSPYSGRGDSPYSGRGDSPYSGRGDSPYSGRGDSPYSGRGDSPYSGRGDSPYSGRGDSPYSGRGDSPYSGRGDSPYSGRGDSPYSGRGDSPYSGRGDSPYSGRGDSPYSGRGDSPYSGRGDSPYSGRGDSPYSGRGDSPYSGRGDSPYSGRGDSPYSGRGDSPYSGRGDSPYSGRGDSPYSGRGDSPYSGRGDSPYSGRGDSPYSGRGDSPYSGRGDSPYSGRGDSPYSGRGDSPYSGRGDSPYSGRGDSPYSGRGDSPYSGRGDQPHNGRGDQPHNGRGDQPHNGRGDQPHNGRGDQPHNGRGDQPHNGRGDQPHNGRGDQPHNGRGDQPHNGRGDQPHNGRGDQPHNGRGDQPHNGRGDQPHNGRGDQPHNGRGDQPHNGRGDQPHNGRGDQPHNGRGDQPHNGRGDQPHNGRGDQPHNGRGDQPHNGRGDQPHNGRGDQPHNGRGDQPHNGRGDQPHNGRGDQPHNGRGDQPHNGRGDQPHNGRGDQPHNGRGDQPHNGRGDQPHNGRGDQPHNGRGDQPHNGRGDQPHNGRGDQPHNGRGDQPHNGRGDQPHNGRGDQPHNGRGDQPHNGRGDQPHN
# B4: UAA4-80: pAzF-containing worm-forming diblock construct (protein)
# chain: QYPSDGRGQYPSDGRGQYPSDGRGQYPSDGRG[Phe(4-N3)]QYPSDGRGQYPSDGRGQYPSDGRGQYPSDGRG[Phe(4-N3)]QYPSDGRGQYPSDGRGQYPSDGRGQYPSDGRG[Phe(4-N3)]QYPSDGRGQYPSDGRGQYPSDGRGQYPSDGRG[Phe(4-N3)]QYPSDGRGQYPSDGRGQYPSDGRGQYPSDGRG[Phe(4-N3)]
# Columns and labels:
# [1] = target: αvβ3 integrin (Homo sapiens, UniProt P05106+P06756); assay: SPR of crosslinked and native pAzF diblock constructs; assay type: binding; conditions: crosslinked UAA5-40-based constructs
# Sequence of αvβ3 integrin (P06756 31-889 limits assumed): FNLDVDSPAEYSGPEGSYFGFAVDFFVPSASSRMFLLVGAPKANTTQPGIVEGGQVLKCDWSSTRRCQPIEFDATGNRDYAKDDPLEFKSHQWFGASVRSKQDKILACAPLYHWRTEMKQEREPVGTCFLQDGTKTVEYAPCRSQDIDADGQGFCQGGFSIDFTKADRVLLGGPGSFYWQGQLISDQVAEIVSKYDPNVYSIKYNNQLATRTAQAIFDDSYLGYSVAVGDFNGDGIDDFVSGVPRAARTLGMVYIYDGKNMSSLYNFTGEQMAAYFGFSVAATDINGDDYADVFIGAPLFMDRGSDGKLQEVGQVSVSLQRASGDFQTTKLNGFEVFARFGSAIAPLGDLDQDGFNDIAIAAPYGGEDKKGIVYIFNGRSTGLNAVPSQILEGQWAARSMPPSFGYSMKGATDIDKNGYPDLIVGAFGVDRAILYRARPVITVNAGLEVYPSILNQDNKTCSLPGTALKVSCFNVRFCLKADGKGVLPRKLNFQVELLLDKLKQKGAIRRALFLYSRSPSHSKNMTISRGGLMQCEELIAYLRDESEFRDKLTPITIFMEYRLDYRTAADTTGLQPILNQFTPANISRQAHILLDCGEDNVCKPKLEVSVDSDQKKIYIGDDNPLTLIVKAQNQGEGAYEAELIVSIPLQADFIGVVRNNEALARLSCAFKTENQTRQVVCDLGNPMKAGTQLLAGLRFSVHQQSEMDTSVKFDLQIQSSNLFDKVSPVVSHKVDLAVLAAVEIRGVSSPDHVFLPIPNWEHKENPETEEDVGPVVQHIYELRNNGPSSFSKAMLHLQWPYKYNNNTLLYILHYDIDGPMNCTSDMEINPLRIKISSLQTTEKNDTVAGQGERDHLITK
# Sequence of αvβ3 integrin (P06756 891-1048 partner limits assumed): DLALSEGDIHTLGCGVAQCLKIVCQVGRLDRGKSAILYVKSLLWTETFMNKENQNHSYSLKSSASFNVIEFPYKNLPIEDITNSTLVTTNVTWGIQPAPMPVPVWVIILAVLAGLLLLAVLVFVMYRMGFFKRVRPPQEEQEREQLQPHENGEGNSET
# Sequence of αvβ3 integrin (P05106 27-788): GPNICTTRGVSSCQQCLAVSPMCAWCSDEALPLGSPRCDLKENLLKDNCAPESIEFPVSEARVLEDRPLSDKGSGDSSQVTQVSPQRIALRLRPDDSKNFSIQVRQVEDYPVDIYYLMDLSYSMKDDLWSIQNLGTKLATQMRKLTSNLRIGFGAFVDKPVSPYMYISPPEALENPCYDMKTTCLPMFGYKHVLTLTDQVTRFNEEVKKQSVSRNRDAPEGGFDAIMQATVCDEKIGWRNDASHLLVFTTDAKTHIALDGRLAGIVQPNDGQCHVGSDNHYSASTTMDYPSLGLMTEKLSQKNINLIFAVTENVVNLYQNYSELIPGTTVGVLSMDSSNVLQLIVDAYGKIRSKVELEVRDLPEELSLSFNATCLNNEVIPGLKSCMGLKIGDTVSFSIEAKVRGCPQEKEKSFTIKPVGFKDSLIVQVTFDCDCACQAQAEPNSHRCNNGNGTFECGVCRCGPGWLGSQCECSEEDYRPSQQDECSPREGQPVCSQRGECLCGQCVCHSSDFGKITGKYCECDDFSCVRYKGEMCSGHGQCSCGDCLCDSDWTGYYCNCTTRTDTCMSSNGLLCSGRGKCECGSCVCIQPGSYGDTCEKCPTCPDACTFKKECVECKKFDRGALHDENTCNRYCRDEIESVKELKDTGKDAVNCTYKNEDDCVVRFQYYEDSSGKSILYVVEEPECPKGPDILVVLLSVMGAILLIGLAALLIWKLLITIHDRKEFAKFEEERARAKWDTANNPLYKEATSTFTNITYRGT
# Experimental: (§1) Though we were interested in the downstream effects of the treatment with crosslinked nanoparticles, we also wanted to investigate how chemical crosslinking affected the binding to the cell membrane receptors themselves. For this, the binding affinities of crosslinked and native diblock architectures were evaluated using surface plasmon resonance (SPR).
# To characterize the integrin-targeting constructs, we started by determining the KD values of the UAA5-40-based constructs. […] A closer look at the SPR sensograms describes the mechanism for this effect where the main reason for the increased KD for the ligands is a result of vastly different association rates (kon) rather than differences in koff.
# [2] = Temperature-programmed dynamic light scattering; assay type: physicochemical; conditions: upon cooling
# Experimental: Temperature-programmed dynamic light scattering experiments were carried out using a Dynapro plate reader (Wyatt Technology; Santa Barbara, Calif.) with samples filtered through 0.45 μm Millex-GV filters. Data were collected at increments of 1° C., and the cumulant fit hydrodynamic radius was taken as the radius. The Tt was defined as the temperature at which aggregates of size hundreds of nanometers were formed.
# Each block co-polypeptide was analyzed by dynamic light scattering (DLS) at several temperatures between 4° C. and 37° C. to determine the thermal stability of the micelles, and to determine their radius of hydration (Rh). […] In contrast, RLP40-ELP80 (SEQ ID NO: 84) and RLP40-ELP80-Fn3 (SEQ ID NO: 96) self-assembled into micelles with a Rh of 30 and 32 nm, respectively, between 20-37° C. (FIG. 15).
# Therefore, to get a more accurate picture, we monitored the Rh as we slowly cooled the solution. We observed two different overall behaviors. [S]-40-[QHN]-40 (SEQ ID NO: 100) upon cooling underwent a clear unimer to micelle transition at ˜55° C. and a clear micelle to aggregate transition at 28° C. (FIG. 32B). A unimer to micelle transition that is temperature dependent is known as the critical micellization temperature (CMT). As we know from before, this UCST aggregation temperature is dependent on the solution concentration. [S]-80-[QHN]-40 (SEQ ID NO: 101) remained a micelle at the highest temperature we could measure with the instrument. Upon cooling the size of the aggregate increased slightly until a clear aggregate transition at 18° C.
# [3] = Critical micelle concentration by pyrene I1/I3 fluorescence; assay type: physicochemical; conditions: inflection point of sigmoidal fit, triplicate data
# Experimental: Key parameters of interest are the hydrophilicity of the corona-forming block, the hydrophilicity of the core block, the overall length of the co-polypeptide and the ratio of the two blocks. Parameters of evaluation are the size, morphology, stability, and thermoresponsive behavior. All measurements were made in 140 mM NaCl, 10 mM phosphate buffer, 3 mM KCl, pH 7.4 unless otherwise specified. Size was evaluated by the hydrodynamic radios (Rh) and radius of gyration (Rg) by dynamic light scattering (DLS) and static light scattering (SLS) respectively. Rg and Rh can be combined to yield the shape factor ρ=Rg/Rh, which provides a rough indication of the morphology of the scatterer. […] For an elongated scatterer, the shape factor depends upon the aspect ratio. A combination of temperature dependent turbidity and DLS was utilized to determine the phase behavior of the block co-polypeptides. Cryogenic transmission electron microscopy (Cryo-TEM) was utilized to evaluate the morphology and provide crucial insight into the hydration of the core/corona chains. Stability of the assembled nanostructure was determined by a shift in the I1/I3 fluorescent bands of pyrene as described previously.
# All of these modifications to the core and corona chains prompted us to measure the critical micelle concentration (CMC) of these micelle constructs. […]
# [4] = Static and dynamic light scattering (SLS/DLS) of block co-polypeptides; assay type: physicochemical; conditions: for ρ / Nagg / Rg(nm) / Rh (nm): Table 9; for ρ: Rg/Rh; for Nagg / Rg(nm) / Rh (nm): UCST-UCST block co-polypeptides
# How it was run: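 Samples at 10 μM in PBS (140 mM NaCl, 10 mM phosphate, 3 mM KCl, pH 7.4), filtered 0.45 μm, measured at 15 °C over 30°–150° in 5° steps. Rh from cumulant fit of DLS, extrapolated to zero angle. Rg and MW from partial Zimm plots of SLS.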
# [5] = target: DR5 (Homo sapiens, UniProt O14763); assay: SPR of DR5-targeting UAA5-40 constructs; assay type: binding; conditions: native construct, same concentration range
# Experimental: as §1
# This extremely good binding constant can be mainly attributed to the koff rate which is so low that it is most probably even below the limit of detection of the SPR instrument. As opposed to the integrin-targeting UAA5-40 particles, we however also observed very strong binding for the native Tn3 construct in the same concentration range (FIG. 53B). […] Principally, this was not a too unexpected result since we already knew that apoptosis induction via DR5-binding required downstream trimerization of the ligand-bound DR5 receptors in the cell membrane. Therefore, we had expected that the reported multivalency requirement for Tn3-action was at least partly stemming from this mechanistic effect rather than the DR5-binding itself.
# [6] = DLS of native and crosslinked pAzF diblock constructs in PBS and GuHCl; assay type: physicochemical
# Text: We wanted to thoroughly investigate the effects of pAzF-introduction as well as nanoparticle crosslinking on nanoparticle self-assembly. For this, we started by characterizing solely our five different ELP/RLP diblock architectures without any C-terminal functionalization. After expression and purification of the diblock constructs using ITC, the pAzF-containing constructs were crosslinked in solution by exposure to UV irradiation and characterized using dynamic light scattering (DLS). […] Generally, both processes seem to have increased the measured radii with this effect being more pronounced for the worm-forming constructs.
# Apart from changes in nanoparticle morphology we were particularly interested in the effect pAzF-crosslinking had on their stability. […] GuHCl is a well-known denaturing agent that disrupts any inter- and intramolecular electrostatic forces and completely breaks down the quaternary, tertiary and secondary structure of most known proteins. Covalent bonds—such as the ones formed by pAzF-crosslinking—however remain unaffected by GuHCl, thus, the addition of this denaturing agent was expected to give us insights on the stability of our crosslinked nanoparticles. […] All native samples on the other hand resorted to complete unimerization upon exposure to GuHCl. As the Rh values for the crosslinked particles in GuHCl were generally larger than in PBS, the DLS data furthermore indicates a swelling behavior in the presence of the denaturing agent. This can most probably be attributed to the RLP core which is assumed to be completely collapsed in PBS but will however try to reach an elongated, random-coil morphology in the presence of GuHCl.
# The first step of the characterization process was to produce crosslinked particles for the functionalized diblock constructs and to analyze whether the attachment of the ligands had caused any significant changes in particle size. […] Whatever the reason was, it had no effect on the crosslinking process as the particles still remained stable after GuHCl exposure.
# Dynamic light scattering of cross-linkable protein nanoparticles was performed. […] However, these crosslinked particles remain assembled, actually growing slightly in size due to chain swelling of the core and corona in this new buffer. These novel scaffolds support various targeting domains and assemble into nearly identically sized nanoparticles between […] in hydrodynamic radius.
# [7] = Critical assembly concentration (CAC) by DLS dilution series; assay type: physicochemical
# Experimental: Lastly, we also wanted to determine the critical assembly concentration (CAC) of the individual constructs. The Rh values were measured with DLS over a dilution series from the mid-micromolar down to the low nanomolar range. […] Curiously, the mere introduction of crosslinking sites seems to dramatically decrease the CAC. Generally, the worm-forming constructs had lower CACs than their spherical analogues and so do pAzF-containing constructs in comparison to analogous pAzF-free polypeptides.
Molecule,micelle to aggregate transition (UCST aggregation) [2],critical micelle concentration (CMC) [3],ρ [4],Nagg [4],Rg(nm) [4],Rh (nm) [4],also measured
GRGDSPAS: UAA5-40-K8D4-ligand construct with integrin-targeting GRGDSPAS ligand (SEQ ID NO: 76),–,–,–,–,–,–,Kd [1]: 20 nM
B1,28 °C,3 µM,1.2,43,35.1 nm,28.4 nm,"unimer to micelle transition (critical micellization temperature, CMT) [2]: ~55 °C; aggregation number (Nagg) [4]: 43; hydrodynamic radius (Rh) [4]: 28.4 nm; radius of gyration (Rg) [4]: 35.1 nm"
B2,–,–,–,–,–,–,Kd [5]: 0.25 nM
B3,18 °C,0.4 µM,1.2,1430,75.7 nm,62.8 nm,shape factor / form factor (Rg/Rh) [4]: > 1
B4,–,–,–,–,–,–,"RH (nm) ([6]; 15 μm in 7.2M GuHCl, crosslinked): 138.1 ± 12.5 nm; RH (nm) ([6]; 15 μm in 7.2M GuHCl, native (not crosslinked)): 7.4 ± 1.9 nm; RH (nm) ([6]; 15 μm in PBS, crosslinked): 86.2 ± 4.5 nm; RH (nm) ([6]; 15 μm in PBS, native (not crosslinked)): 55.7 ± 2.3 nm; CAC [7]: 30 to 50 nM"
